The source of these data is US8394380B2, “Compositions and methods for alzheimer's disease” (Primex Clinical Laboratories, Inc., priority 2004, dated 2013).

Where two headings read alike, the source gives them in different places. Positions of bridges follow the written chain, without caps; N, C: chain ends. No end group written: not given here.

Data set [1] relates to primary cultures of hippocampal neurons and mixed cortical neurons. To be noted: cited from earlier work.
Data set [2] relates to rat cultured hippocampal neurons.
Experimental: (§2) Primary cultures of hippocampal neurons were prepared from 17-18 day gestational Wistar rat embryos as described previously (Brewer et al., 1993) with some modifications (Massieu et al., 2003). Briefly, after dissection, 10-12 hippocampi were chopped into 300-μm cubes, incubated in a 0.25% trypsin solution, and dispersed by trituration in a 0.08% DNAase and 0.52% soybean trypsin inhibitor containing solution. Cells were suspended in Neurobasal culture medium (GIBCO/Life technologies, Rockville Md., USA) (Brewer et al. 1993) supplemented with B27 (Minus AO GIBCO/life technologies, Rockville, Md., USA), 0.5 mM L-glutamine, 20 μg/ml gentamicin, and 0.2 mM glutamate, and plated at a density of 260-290×10^3/cm^2 in Costar 48-well plates (Cambridge, Mass., USA), precoated with poly-L-lysine (5 μg/ml). Cells were cultured for 6 days in vitro (DIV) at 37° C. in a humidified 5% CO2/95% air atmosphere. Glucose (5 mM) and cytosine arabinoside (10 μM) were added to cultures 4 days after plating.
(§3) The effect of individual treatments of the different peptides on cell viability was also tested. Aβ42 was pre-incubated at 37° C. during 48 h to promote its aggregation and increase neurotoxicity. Cell viability was assessed by the MTT (3-(4,5-dimethylthiazol-2-yl)-2,5-diphenyltetrazolium bromide) dye reduction assay (Mosmann, 1983) as previously described (Garcia and Massieu, 2001). The assay is based on the ability of living mitochondria to convert MTT into insoluble formazan by active dehydrogenases.
(§4) In brief, 72 h after exposure to Aβ42, cell cultures were incubated with MTT (150 μM) during a 1 h period at 37° C. in a 5% CO2/95% O2-containing atmosphere. The medium was aspirated, and the precipitated formazan was solubilized with 0.480 ml isopropanol. After solubilization, isopropanol was transferred to eppendorf tubes, centrifuged (18 000 rpm for 30 s) and the optical density in the supernatant measured at 570 nm in a spectrofluorometer (Beckman DU-640). Cell damage was expressed as percent reduction in mitochondrial activity relative to control cultures. Data were expressed as means±SE (standard error) of 4 independent experiments.
For data set [3] the test system is unchanged. As to the kind of experiment: Neuroprotection assay, Aβ42-induced neurotoxicity, MTT reduction. For orientation: Formazan colour is commonly taken as a measure of viable cells.
Experimental: as §2, §3, §4
The target in data set [4] is T1, Aβ42 (Homo sapiens, UniProt P05067). As to the kind of experiment: ELISA using CDR-based synthetic peptides: biotinylated Aβ42 added to peptide-coated plates. The class given is binding. As to the method:
ELISA analysis was carried out using MaxiSorp microtiter plates coated overnight with synthetic peptide at a concentration of 10 μg/ml in carbonate buffer. After washing, plates were blocked with PBS/2% BSA for 1 h at 37° C. After incubation and a washing step, biotinylated Aβ42 was added to each well. Plates were again incubated for 1 h at 37° C., washed, and reacted with an avidin-peroxidase conjugate diluted 1:500 (Pharmingen, San Jose, Calif., USA) followed by the ABTS single solution (Zymed) as described above.
A general note: In an ELISA, binding on a coated surface is turned into a signal by an enzyme label.

The target of data set [5] is T1, Aβ42. As to the kind of experiment: Competition ELISA: binding of biotinylated Aβ42 to immobilized cyclic C44. To be noted: competitor pre-incubated with biotinylated Aβ42 overnight at 4° C., N44 linear. As to the method: For competition ELISA, cyclic C44 and linear N44 were diluted in PBS/1% BSA and incubated with biotinylated Aβ42 overnight at 4° C. prior to addition to plates coated with cyclic C44.

Data set [6] deals with T2, human Aβ42 (wild-type) (Homo sapiens, UniProt P05067).
T2 construct: coated overnight with 2 μg/ml of wild-type Aβ42 (BACHEM Bioscience Inc); purchased BACHEM Bioscience Inc
Kind of data set: ELISA binding of phage-displayed scFv / serum to Aβ42-coated wells. The conditions noted are these: control wild type phage M13. As to the method:
One week after the fourth immunization, mouse sera were tested in ELISA for the presence of specific anti-Aβ42 antibodies. Briefly, a 96-well plate (Nunc, Roskilde, Denmark) was coated with 1 μg/ml of Aβ42 in phosphate buffer (pH 7.8) overnight at 4° C. The plate was washed with phosphate buffer containing 0.1% Tween-20 (PBS-Tween) and blocked with PBS containing 2% bovine serum albumin (PBS-BSA). After washing, mouse sera diluted in PBS-BSA 1% was added, and the plate was incubated for 1 h at 37° C. The plate was washed and goat anti-mouse IgG conjugated with HRP (Zymed, San Francisco, Calif., USA) was added. After incubation for 1 h at 37° C., the plate was washed and 2,2′-azino-bis-(3-ethyl-benzothiazoline-6-sulphonic acid (ABTS) single solution (Zymed) was added. The OD reading at 405 was registered using Opsys MR Microplate Reader (DYNEX Technologies, Chantilly, Va., USA).
Fresh 2×YT without glucose but supplemented with ampicillin and kanamycin was added to each well, and plates were incubated overnight at 30° C. with shaking Microtiter plates (Nunc) were coated with Aβ and blocked as described above, supernatants from plates containing phage were added, and after incubation for 1 h at 37° C., plates were washed with PBS-Tween. […] The OD reading at 405 was registered using Opsys MR Microplate Reader (DYNEX Technologies). […]

Data set [7] has as its target T3, Flemish (A21G) mutant Aβ42 (Homo sapiens, UniProt P05067, A692G).
T3 construct: mutant Aβ42 (SynPep Corp., CA, USA); purchased SynPep Corp
Kind of data set: ELISA binding of phage-displayed scFv to Flemish mutant Aβ42. The conditions noted are these: control wild type phage M13. On the procedure:
(§1) Microtiter plates were coated with Aβ42 and blocked as described above, 10^10 of each phage clone were added, and after incubation for 1 h at 37° C., plates were washed with PBS/Tween. An anti-M13 monoclonal HRP (horseradish peroxidase) conjugate (Amersham Pharmacia Biotech, USA) diluted in PBS/1% BSA was then added to the plates followed by an incubation for 1 h 37° C. Plates were washed and the ABTS (2,2′-azino-bis(3-ethylbenzothiazoline-6-sulfonic acid) single solution (Zymed, San Francisco, Calif., USA) was added. The OD 405 nm readings were measured using Opsys MR Microplate Reader (DYNEX Technologies, Inc., Chantilly, Va., USA). An identical ELISA procedure was performed using Flemish (containing an A to G substitution at aa21; i.e. A21G) and Dutch (containing an E to Q substitution at aa22; E22Q) mutant Aβ42 (SynPep Corp., CA, USA).

Data set [8] deals with T4, Dutch (E22Q) mutant Aβ42 (Homo sapiens, UniProt P05067, E693Q).
T4 construct: mutant Aβ42 (SynPep Corp., CA, USA); purchased SynPep Corp
As to the kind of experiment: ELISA binding of phage-displayed scFv to Dutch mutant Aβ42. To be noted: control wild type phage M13. On the procedure: as §1

Data set [9] has as its target Aβ1-28 (Homo sapiens, UniProt P05067). As to the kind of experiment: ELISA binding of phage-displayed scFv to Aβ1-28. To be noted: control wild type phage M13.
The mark [10] stands for this setting: plates coated with peptide 10 μg/ml.
The mark [11] stands for this setting: peptide in cyclic form, 40 μM with Aβ42 40 μM, 72 h.
Where [12] appears, read: peptide in linear form, 40 μM with Aβ42 40 μM, 72 h.

`CC[C@H](C)C(=O)O[C@H]1C[C@@H](C)C=C2C=C[C@H](C)[C@H](CC[C@@H]3C[C@@H](O)CC(=O)O3)[C@H]21` [lovastatin]: in data set [1], the “intracellular and extracellular levels of Aβ” value was “reduce”.
As to ASVRGWYVRSVFDPA [N44], the “effect of peptide alone on basal MTT reducing capacity” value in data set [2] is given as “Neither N44 nor C44 (either the linear or cyclic forms) alone altered basal MTT reducing capacity”.
Take “Aβ42: human amyloid-beta peptide, pre-aggregated, used as neurotoxic insult [reference compound]”: in [3] (Aβ42 40 μM alone, 72 h), the “decrease in mitochondrial activity” value worked out at 24.3%.
As for “CADWRYRSVFGPVSVAC (disulfide 1-17 (inferred)) [Scr44, reference compound]”, in [4] (peptide in cyclic form, negative control), the “OD405, binding of biotinylated Aβ42 to coated peptide” value is 0.25±0.03. The “binding to Aβ42 in ELISA” value in data set [4] (setting [10]) was “did not bind”.
In the case of “CASVRGWYVRSVFDPAC (cyclic or linear) [C44]”, the “binding to Aβ42 in ELISA” value in data set [4] (cyclic peptide, S—S bond reduced with β-mercaptoethanol) is listed as “abolished completely”; in [4] (linear form after spontaneous air oxidation, overnight agitation), “restored”; in [4] (peptide in cyclic form), “recognized”; in data set [4] (peptide in its linear form), “weak recognition”. Besides, the “inhibition of binding of Aβ42 to immobilized cyclic C44” value in [5] is recorded as “inhibited, in a dose dependent manner”. The “effect of peptide alone on basal MTT reducing capacity” value in [3] (peptide alone, without Aβ42) is listed as “Neither N44 nor C44 (either the linear or cyclic forms) alone altered basal MTT reducing capacity”. Besides, the values for the neuroprotective effect in [3] (peptide in cyclic form) and in data set [3] (peptide in linear form) were 53.6% and 69.3%, respectively. Besides, in data set [3] (setting [11]), the “decrease in mitochondrial activity when co-incubated with Aβ42” value stood at 11.9%. The “protection against Aβ42 neurotoxicity” value in [3] (setting [11]) is listed as “showed protection”. For the same molecule, the “prevention of Aβ42 neurotoxicity” value in [3] (setting [12]) is given as “significantly prevented”. In addition, the “reduction in mitochondrial activity when co-incubated with Aβ42” value in data set [3] (setting [12]) worked out at 7.7%.
Turning to “IWGCSGKLICTTAVP (not fully specified (bridges); also: cyclic, ring type not given here) [GM15, reference compound]”, the “binding to Aβ42 in ELISA” value in data set [4] (setting [10]) is listed as “did not bind”.

B1: b4.6: phage-displayed human anti-Aβ42 scFv, SEQ ID NO:12, HCDR3 SHYWDS (protein)
scFv: QVQLQESGPGLVKPSETLSLTCSVSGGSVSSGNYYWTWIRQPPGKGLEWIGYIYSSGSTSYNPSLMSRVTISLDMSKNQFSLRLTSVTAADTAVYYCARSHYWDSWSPGTLVTVSSGGGGSGGGGSGGGGSDIVMTQSPSSMSASVGDTVTIACRASRDIRNDLAWYQQKPGKAPKLLIYAASRLQSGVPSRFSGSGSFTDFTLTIQLCLQPDDFATYYCLQDSDYPLTFGGGTKLEIKR
Regarding B1, the “binding to wild type Aβ42 in ELISA” value in data set [6] is on record as “bound”. In addition, in data set [7], the “binding to Flemish mutant Aβ42 in ELISA” value is on record as “bound”. Also, the “binding to Dutch mutant Aβ42 in ELISA” value in data set [8] is “not statistically different from control phage M13”. Besides, in data set [9], the “binding to Aβ1-28 in ELISA” value was “not statistically different from control phage M13”.
